For orientation: Ki means a dissociation constant, usually derived from enzyme kinetics or from competition with a known ligand. A low value points to a stronger hold on the target.

Experiment [1] deals with ADAM12-S (shorter secreted form of ADAM12), full-length (human) (UniProt O43184). Put plainly: enzyme inhibition kinetics.
The target of experiment [2] is ADAM12-Cat (truncated ADAM12 protein consisting of only the pro and catalytic domains) (human) (UniProt O43184). Put plainly: enzyme inhibition kinetics.

In the case of N-TIMP-1[T98L] (domain or fragment), the Ki in experiment [1] came to 21.7 nM; in experiment [2] it was 11.2 nM.

Take “N-TIMP-1[TIMP-2-ABloop] (domain or fragment)”: the values for the Ki in experiment [1] and in experiment [2] were over 500 nM and 247 nM, respectively.

In experiment [1], “N-TIMP-1[TIMP-3-ABloop] (domain or fragment)” had a Ki of 66 nM.

Turning to N-TIMP-1[V4A] (domain or fragment), the Ki in experiment [1] amounted to 190 nM.

For N-TIMP-1[V4S] (domain or fragment), the Ki in experiment [1] amounted to 122 nM.

Take “N-TIMP-1^TACE (V4S/V69L/T98L/TIMP-3-ABloop) (domain or fragment)”: the Ki stood at 16.4 nM in experiment [1] and 1.9 nM in experiment [2].

As for “N-TIMP-2 (N-terminal domain of TIMP-2), wild-type (domain or fragment)”, the Ki in experiment [1] was determined as 69.7 nM; in experiment [2] it was 5.5 nM.

Take “N-TIMP-2-ΔABloop (N-TIMP-2 with the AB-loop deleted) (domain or fragment)”: the Ki came to 28.1 nM in experiment [1] and 2.5 nM in experiment [2].

Regarding “N-TIMP-2^TACE (S2T/A70S/V71L/TIMP-3-ABloop) (domain or fragment)”, in experiment [2], the Ki was determined as 0.65 nM.

As to “N-TIMP-2^TACE[F34G] (domain or fragment)”, in experiment [1], the Ki worked out at 18 nM.

For “N-TIMP-2^TACE[L100E] (domain or fragment)”, the Ki is 22 nM in experiment [1] and 4.1 nM in experiment [2].

These data come from paper PMC3025530.
